{"source": "paper PMC3652662", "about": "(Journal of molecular recognition : JMR, 2009)", "binders": {"B1": {"name": "HNG-156, ferrocene triazole peptide conjugate (peptide)", "chain": "RINNI[X1]WSEAMM-NH2"}}, "key": {"HIV-1_(SF162) gp120": {"target": "HIV-1_(SF162) gp120 (HIV-1 (strain SF162, clade B))", "test": "SPR"}, "HIV-1_(92UG037-08) gp120": {"target": "HIV-1_(92UG037-08) gp120 (HIV-1 (strain 92UG037-08, clade A))", "test": "SPR"}}, "note": "Starred links: 1 amine or outer side, 2 acyl side, 3 side chain; linkers in the order of their positions; H or OH if unused. Non-standard residues stand in square brackets, D forms with d. No end group written: not given here. X1 = (2S,4S)‑4‑(4-ferrocenyl-1H-1,2,3-triazol-1-yl)pyrrolidine‑2‑carboxylic acid, O=C([C@@H]1C[C@H](n2cc(-[c-]3cccc3)nn2)CN1[*:1])[*:2].[Fe+2].c1cc[cH-]c1"}
{"binder": "B1", "values": [{"measurement": "Kd", "setting": "HIV-1_(SF162) gp120", "value": 0.009, "unit": "µM"}, {"measurement": "Kd", "setting": "HIV-1_(92UG037-08) gp120", "value": 0.0163, "unit": "µM"}]}
